Assay results published in patent publication US20260242483A1.

How the values were obtained:
[1] = biological target: human BTN3A as expressed on human cells (PBMC, Daudi, tumour cell lines, HUVEC, HEK293T WT) (human); assay: cell-based or functional assay
[2] = biological target: human BTN3A as expressed on human cells (PBMC, Daudi, tumour cell lines, HUVEC, HEK293T WT) (human); assay: flow cytometry on human PBMCs
[3] = biological target: recombinant human BTN3A1-His (Sino Biological Cat. No. 15973-H08H) (human) (UniProt O00481); assay: SPR Biacore multi-cycle kinetics; antibody captured on Protein A, BTN3A1-His analyte, 1:1 fit
Sequence of recombinant human BTN3A1-His (Sino Biological Cat. No. 15973-H08H) (human) (O00481 30-254 limits assumed): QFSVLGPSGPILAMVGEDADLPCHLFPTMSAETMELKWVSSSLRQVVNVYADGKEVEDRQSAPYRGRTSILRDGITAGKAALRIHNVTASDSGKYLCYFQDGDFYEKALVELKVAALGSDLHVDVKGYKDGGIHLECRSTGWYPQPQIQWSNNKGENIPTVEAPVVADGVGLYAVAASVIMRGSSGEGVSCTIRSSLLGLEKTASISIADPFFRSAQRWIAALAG

[4] = biological target: human BTN3A as expressed on human cells (PBMC, Daudi, tumour cell lines, HUVEC, HEK293T WT) (human); assay: flow cytometry on Daudi lymphoma cells
[5] = biological target: cynomolgus BTN3A as expressed on cynomolgus PBMCs (cynomolgus monkey (Macaca fascicularis)); assay: flow cytometry on cynomolgus PBMCs

Functional assay (AML resistant) (γδT cell-based, EC50, µg/mL) [1]: 0.18 µg/mL
Functional assay (AML sensitive) (γδT cell-based, EC50, µg/mL) [1]: 0.05 µg/mL
Functional assay (Daudi) (γδT cell-based, EC50, µg/mL) [1]: 0.02 µg/mL
EC50 [2]: 3.02 µg/mL
Kd [3]: 0.234 nM
EC50 [4]: 1.19 µg/mL
EC50 [5]: 4.06 µg/mL
Substance: Chimeric 20.1 (VH0/Vκ0) IgG4 (S241P, L248E) (antibody)
